According to publication PMC5571166, “Mapping the key residues of SufB and SufD essential for biosynthesis of iron-sulfur clusters” (Scientific Reports, 2017):
Numbering of substitutions follows the chain as printed.

Columns and labels:
Test in all cases: SEC; SufBCD complexes co-expressed in E. coli and co-purified on Phenyl FF, Q XL and Sephacryl S-200; eluted from gel filtration at about 160 kDa; subunit composition checked by SDS-PAGE of the purified sample
Conditions in all cases: both partners purified
SufB (wild type) = molecular target: T1, SufB (wild type) (Escherichia coli, UniProt P77522 1-495)
T1 construct: SufB of the Escherichia coli sufABCDSE operon; Expressed from the cloned suf genes with no tag mentioned; The host is stated only for the variant complexes (YT2512, pGSO164-derived plasmid); One SufB per SufBCD complex (SufB:SufC:SufD 1:2:1); also called SufB subunit of the wild-type SufBCD complex; source: purified as the wild-type SufBCD complex; E. coli YT2512 (ΔsufABCDSE) from pBBR-sufAB, in …
T1 sequence: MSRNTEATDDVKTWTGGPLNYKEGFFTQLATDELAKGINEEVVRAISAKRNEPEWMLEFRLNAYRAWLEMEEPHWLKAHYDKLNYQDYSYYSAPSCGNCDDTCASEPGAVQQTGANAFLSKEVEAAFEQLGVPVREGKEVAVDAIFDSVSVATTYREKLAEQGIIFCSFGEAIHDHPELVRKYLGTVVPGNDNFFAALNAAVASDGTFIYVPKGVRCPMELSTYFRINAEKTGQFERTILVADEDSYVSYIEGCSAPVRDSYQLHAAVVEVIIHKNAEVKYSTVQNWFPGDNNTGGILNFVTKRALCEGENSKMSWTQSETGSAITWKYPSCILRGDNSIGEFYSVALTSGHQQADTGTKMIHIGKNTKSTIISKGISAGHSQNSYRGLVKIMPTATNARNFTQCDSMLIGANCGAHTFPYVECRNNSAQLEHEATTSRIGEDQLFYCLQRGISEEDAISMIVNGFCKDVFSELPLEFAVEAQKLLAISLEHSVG

SufB^N228A = molecular target: T2, SufB^N228A (Escherichia coli, UniProt P77522 1-495, SufB^N228A)
T2 construct: SufB of the Escherichia coli sufABCDSE operon
T2 sequence: T1 sequence with N228A

SufB^C405A = molecular target: T3, SufB^C405A (Escherichia coli, UniProt P77522 1-495, SufB^C405A)
T3 construct: SufB of the Escherichia coli sufABCDSE operon
T3 sequence: T1 sequence with C405A

SufB^C254A = molecular target: T4, SufB^C254A (Escherichia coli, UniProt P77522 1-495, SufB^C254A)
T4 construct: SufB of the Escherichia coli sufABCDSE operon; source: pBBR-sufAB carrying the mutation, in bacterial extract
T4 sequence: T1 sequence with C254A

Measured: binding result

B1: SufC (natural protein, Escherichia coli)
chain: MLSIKDLHVSVEDKAILRGLSLDVHPGEVHAIMGPNGSGKSTLSATLAGREDYEVTGGTVEFKGKDLLALSPEDRAGEGIFMAFQYPVEIPGVSNQFFLQTALNAVRSYRGQETLDRFDFQDLMEEKIALLKMPEDLLTRSVNVGFSGGEKKRNDILQMAVLEPELCILDESDSGLDIDALKVVADGVNSLRDGKRSFIIVTHYQRILDYIKPDYVHVLYQGRIVKSGDFTLVKQLEEQGYGWLTEQQ
notes: SufC of the Escherichia coli sufABCDSE operon; also called SufC subunit of the SufBCD complex
binds: all assays above

B2: SufD (natural protein, Escherichia coli)
chain: MAGLPNSSNALQQWHHLFEAEGTKRSPQAQQHLQQLLRTGLPTRKHENWKYTPLEGLINSQFVSIAGEISPQQRDALALTLDSVRLVFVDGRYVPALSDATEGSGYEVSINDDRQGLPDAIQAEVFLHLTESLAQSVTHIAVKRGQRPAKPLLLMHITQGVAGEEVNTAHYRHHLDLAEGAEATVIEHFVSLNDARHFTGARFTINVAANAHLQHIKLAFENPLSHHFAHNDLLLAEDATAFSHSFLLGGAVLRHNTSTQLNGENSTLRINSLAMPVKNEVCDTRTWLEHNKGFCNSRQLHKTIVSDKGRAVFNGLINVAQHAIKTDGQMTNNNLLMGKLAEVDTKPQLEIYADDVKCSHGATVGRIDDEQIFYLRSRGINQQDAQQMIIYAFAAELTEALRDEGLKQQVLARIGQRLPGGAR
notes: SufD of the Escherichia coli sufABCDSE operon; One SufD per SufBCD complex (1:2:1); also called SufD subunit of the SufBCD complex
binds: all assays above
